One block for each binder: values may come before it.
What was measured:
[1] = biological target: T1, C8 acylated human ghrelin (1-28) (human, n-octanoyl group on the serine at position three (Ser3)); experiment: KinExA solution equilibrium; constant Fab, ghrelin titrated, free Fab captured on biotin-C8-ghrelin streptavidin beads
T1 construct: 28-residue peptide hormone; In the first KinExA experiment a biotinylated form was on the beads and the unlabelled peptide was titrated in solution; also called Human C8 ghrelin; human C8 acylated ghrelin (1-28)
Protocol: The KinExA 3000 instrument, manufactured by Sapidyne, is used to measure binding kinetics. Briefly, streptavidin is covalently coupled to azlactone beads. Biotinylated C8 acylated human ghrelin (1-28) is subsequently bound to these streptavidin beads. The binding of free anti-ghrelin Fab to the beads is detected on the instrument.
To measure Kds, individual tubes containing a constant concentration of 20-100 pM of Fab with decreasing serially diluted C8 acylated human ghrelin (1-28) are incubated for 18 h at 20° C. in 0.1% BSA, PBS. […] For example, clone 4a1 is used at a constant concentration of 20 pM and individual tubes are incubated with 0-20 nM of ghrelin. Incubations for other Fabs are set in a similar manner. After incubation, free Fab in each equilibrated sample is determined on the KinExA 3000 instrument according to the manufacturer's instructions. Kd values are determined using the KinExA 3000 software.

[2] = biological target: T1, C8 acylated human ghrelin (1-28); experiment: BIAcore SPR; Mab amine-coupled to CM5 chip, ghrelin injected, n = 2
Protocol: (§1) The affinity (Kd) of humanized C2 anti-ghrelin Mabs is measured using a BIAcore® 2000 instrument containing a CM5 sensor chip. The BIAcore® utilizes the optical properties of surface plasmon resonance to detect alterations in protein concentration of interacting molecules within a dextran biosensor matrix. Except where noted, all reagents and materials are purchased from BIAcore® AB (Uppsala, Sweden). All measurements are performed at about 25° C. All samples containing either rat or human ghrelin (full length, C8- or C10-acylated, or desacylated) and anti-ghrelin Fab or Mab are diluted in HBS-EP buffer (150 mM sodium chloride, 3 mM EDTA, 0.005% (w/v) surfactant P-20, and 10 mM HEPES, pH 7.4). A capture antibody, goat anti-mouse kappa (Southern Biotechnology, Inc), or goat anti-mouse Fc gamma (Jackson ImmunoResearch), is immobilized onto flow cells using amine-coupling chemistry. Flow cells (1-4) are activated for 7 minutes with a 1:1 mixture of 0.1 M N-hydroxysuccinimide and 0.1 M 3-(N,N-dimethylamino)propyl-N-ethylcarbodiimide at a flow rate of 10 μl/min. The capture antibody, for example goat anti-mouse kappa, is diluted to 30 μg/mL in 10 mM sodium acetate, pH 4.5, and manually injected over all four flow cells at a flow rate of 10 μL/min. The surface density is monitored, and additional capture antibody is injected as needed to each individual cell until all flow cells reach a surface density of 4500-5000 response units (RU). Surfaces are blocked with a seven minute injection of 1 M ethanolamine-HCl, pH 8.5(10 μL/min). To ensure complete removal of any noncovalently bound capture antibody, 15 μL of 10 mM glycine, pH 1.5, are injected twice. Running buffer for kinetic experiments is HBS-EP buffer (150 mM sodium chloride, 3 mM EDTA, 0.005% (w/v) surfactant P-20, and 10 mM HEPES, pH 7.4). For C2_{—}4A1, 5A1, and 7A1, the antibody is directly coupled to a CM5 chip using the amine-coupling chemistry described above, aiming for a surface density of between 800-1000 RU.
(§2) Collection of kinetic binding data is performed at maximum flow rate (100 μL/min) and a low surface density to minimize mass transport effects.

[3] = biological target: T2, Rat C8 ghrelin (28 amino acids, C8-acylated) (rat, UniProt Q9QYH7 24-51, C8-acylated (n-octanoyl; octanoylated at Ser3 as told for rat ghrelin in paragraph 40)); experiment: as above
T2 construct: mature; the assay used the 28-residue peptide; also called C8-acylated rat ghrelin
T2 peptide (looked up): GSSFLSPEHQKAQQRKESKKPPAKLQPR
Protocol: as §1, §2

[4] = biological target: T1, C8 acylated human ghrelin (1-28); experiment: BIAcore SPR; Fab captured by goat anti-mouse kappa, ghrelin injected, n = 8
Protocol: as §1, with “RU. […]” for “RU.”

[5] = biological target: T3, Human C10 ghrelin (1-28) (human, n-decanoyl group on Ser3 (C10-acylated)); experiment: BIAcore SPR; Fab captured by goat anti-mouse kappa, ghrelin injected, n = 3
T3 construct: also called decanoyl ghrelin (1-28)
Protocol: as §1, with “RU. […]” for “RU.”

[6] = biological target: T1, C8 acylated human ghrelin (1-28); experiment: KinExA solution equilibrium; C8 ghrelin coupled to azlactone beads, n-curve analysis, n = 3
Protocol: (§3) Briefly, 10 μg human C8 acylated ghrelin (1-28) is covalently coupled to 50 mg azlactone beads (Sapidyne). […] For example, anti-ghrelin C2 murine Fab is used at a constant concentration of either 60, 600, or 6000 pM, and individual tubes are incubated with 0-60, 0-100, or 0-1000 nM of ghrelin, respectively. After the incubation, free Fab or Mab in each equilibrated sample is determined on the KinExA 3000 instrument according to the manufacturer's instructions. Kd values are assessed using the KinEkA 3000 n-curve analysis software.

[7] = biological target: T2, Rat C8 ghrelin (28 amino acids, …); experiment: BIAcore SPR; Fab captured by goat anti-mouse kappa, ghrelin injected, n = 5
Protocol: as §1, with “RU. […]” for “RU.”

[8] = biological target: T3, Human C10 ghrelin (1-28); experiment: BIAcore SPR; Mab captured by goat anti-mouse kappa or anti-mouse Fc gamma, ghrelin injected, n = 6
Protocol: as §1, with “RU. […]” for “RU.”

[9] = biological target: T1, C8 acylated human ghrelin (1-28); experiment: KinExA solution equilibrium; C8 ghrelin coupled to azlactone beads, n-curve analysis, n = 2
Protocol: as §3

[10] = biological target: T2, Rat C8 ghrelin (28 amino acids, …); experiment: BIAcore SPR; Mab captured by goat anti-mouse kappa or anti-mouse Fc gamma, ghrelin injected, n = 7
Protocol: as §1, with “RU. […]” for “RU.”

[11] = biological target: T1, C8 acylated human ghrelin (1-28); experiment: BIAcore SPR; Mab captured by goat anti-mouse kappa or anti-mouse Fc gamma, ghrelin injected, n = 11
Protocol: as §1, with “RU. […]” for “RU.”

T3 sequence (peptide, as listed by the source): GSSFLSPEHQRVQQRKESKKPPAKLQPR

B1: Humanized, affinity matured C2 anti-ghrelin Fab 7b2 (Fab, V domains shown)
VH: QVQLVQSGAEVKKPGASVKVSCKATGYIFTGYWIEWVRQAPGQGLEWMGDILPGSGSPNYNEKFKGRVTMTTDTSTSTAYMELRSLRSDDTAVYYCARYPIFRLRTERIAEWGQGTLVTVSS
VL: DIVMTQSPDSLAVSLGERATINCRASKSVSLLGYSYMHWYQQKPGQPPKLLIYFASNLESGVPDRFSGSGSGTDFTLTISSLQAEDVAVYYCQHSIEEPYTFGQGTKLEIK
notes: Fab; The constant domains are not described
Kd [1]: 0.0253 nM

B2: Mab C2_7A1 (human VH/VL with rat Fc chimera) (antibody, V domains shown)
VH: QVQLVQSGAEVKKPGASVKVSCKATGYIFTGYWIEWVRQAPGQGLEWMGDILPGSGSPNYNEKFKGRVTMTTDTSTSTAYMELRSLRSDDTAVYYCARYPIFRPRTERIAYWGQGTLVTVSS
VL: DIVMTQSPDSLAVSLGERATINCRASKSVSLLGYSYMHWYQQKPGQPPKLLIYFASNLESGVPDRFSGSGSGTDFTLTISSLQAEDVAVYYCQHSVEEPYTFGQGTKLEIK
notes: Humanized VH/VL with rat Fc; The Mab is tied to the Fab 7a1 variable regions by its clone name only
Kd [2]: 0.012 nM | koff [2]: 0.00013 s⁻¹ | kon [2]: 1e+07 M⁻¹ s⁻¹

B4: Mab C2_5A1 (humanized, affinity matured VH/VL (Fab C2-5a1 sequences) with rat Fc chimeric C2 anti-ghrelin antibody) (antibody, V domains shown)
VH: QVQLVQSGAEVKKPGASVKVSCKATGYIFTGYWIEWVRQAPGQGLEWMGDILPGSGSPNYNEKFKGRVTMTTDTSTSTAYMELRSLRSDDTAVYYCARYPIFRLRTERIAEWGQGTLVTVSS
VL: DIVMTQSPDSLAVSLGERATINCRASKSVSLSGYSYMHWYQQKPGQPPKLLIYFASNLESGVPDRFSGSGSGTDFTLTISSLQAEDVAVYYCQHSIEEPYTFGQGTKLEIK
notes: Humanized VH/VL with rat Fc; also called C2-5a1 antibody
Kd [2]: 0.013 nM | koff [2]: 0.00012 s⁻¹ | kon [2]: 8.6e+06 M⁻¹ s⁻¹ | Kd [3]: 0.02 nM | koff [3]: 0.00012 s⁻¹ | kon [3]: 6.6e+06 M⁻¹ s⁻¹

B6: C2 chimeric Fab (heavy and light chain variable regions of C2 murine Fab 1111 fused to human CH1 and CL domains) (Fab, V domains shown)
VH: EIQLQQSGAELMKPGASVKLSCKATGYIFTGYWIEWVKQRPGHGLEWIGEILPGSGSTNYNEKFKGKATFTADTSSNTANMQLSSLTTEDSAIYYCARYPQFRLRRERIAYWGQGTLVTVSV
VL: DLVLTQSPASLAVSLGQRATISCRASKSVSTSGYSYMHWYQQKPGQPPKLLIYLASNLESGVPARFSGSGSGTDFTLNIHPVEEEDAATYYCQHSRELPYTFGAGTKLELKR
Kd [1]: 1.1 nM

B7: C2 murine Fab 1111 (Fab, V domains shown)
VH: EIQLQQSGAELMKPGASVKLSCKATGYIFTGYWIEWVKQRPGHGLEWIGEILPGSGSTNYNEKFKGKATFTADTSSNTANMQLSSLTTEDSAIYYCARYPQFRLRRERIAYWGQGTLVTVSV
VL: DLVLTQSPASLAVSLGQRATISCRASKSVSTSGYSYMHWYQQKPGQPPKLLIYLASNLESGVPARFSGSGSGTDFTLNIHPVEEEDAATYYCQHSRELPYTFGAGTKLELKR
notes: also called Anti-ghrelin C2 Fab (Fab1111)
Kd [4]: 0.953 nM | koff [4]: 0.0016 s⁻¹ | kon [4]: 1.7e+06 M⁻¹ s⁻¹ | Kd [5]: 4.55 nM | koff [5]: 0.0088 s⁻¹ | kon [5]: 2.1e+06 M⁻¹ s⁻¹ | Kd [6]: 1.03 nM | Kd [7]: 1.23 nM | koff [7]: 0.0016 s⁻¹ | kon [7]: 1.4e+06 M⁻¹ s⁻¹

B8: Mab C2 (full murine sequence, i.e., Fab 1111 VH/VL and murine Fc) (antibody, V domains shown)
VH: EIQLQQSGAELMKPGASVKLSCKATGYIFTGYWIEWVKQRPGHGLEWIGEILPGSGSTNYNEKFKGKATFTADTSSNTANMQLSSLTTEDSAIYYCARYPQFRLRRERIAYWGQGTLVTVSV
VL: DLVLTQSPASLAVSLGQRATISCRASKSVSTSGYSYMHWYQQKPGQPPKLLIYLASNLESGVPARFSGSGSGTDFTLNIHPVEEEDAATYYCQHSRELPYTFGAGTKLELKR
notes: Full-length murine antibody with a kappa light chain (it was captured with anti-mouse kappa); also called Anti-ghrelin C2 Mab
Kd [8]: 4.1 nM | koff [8]: 0.0092 s⁻¹ | kon [8]: 1.9e+06 M⁻¹ s⁻¹ | Kd [9]: 1.44 nM | Kd [10]: 2.6 nM | koff [10]: 0.0018 s⁻¹ | kon [10]: 800000 M⁻¹ s⁻¹ | Kd [11]: 0.779 nM | koff [11]: 0.0015 s⁻¹ | kon [11]: 2.4e+06 M⁻¹ s⁻¹

Results, then the binder that gave them:

Kd [1]: 0.0042 nM
B3: Humanized, affinity matured C2 anti-ghrelin Fab 7a1 (Fab, V domains shown)
VH: QVQLVQSGAEVKKPGASVKVSCKATGYIFTGYWIEWVRQAPGQGLEWMGDILPGSGSPNYNEKFKGRVTMTTDTSTSTAYMELRSLRSDDTAVYYCARYPIFRPRTERIAYWGQGTLVTVSS
VL: DIVMTQSPDSLAVSLGERATINCRASKSVSLLGYSYMHWYQQKPGQPPKLLIYFASNLESGVPDRFSGSGSGTDFTLTISSLQAEDVAVYYCQHSVEEPYTFGQGTKLEIK
notes: Fab; The constant domains are not described for this clone

Kd [1]: 0.001 nM
B5: Humanized, affinity matured C2 anti-ghrelin Fab 5a1 (Fab, V domains shown)
VH: QVQLVQSGAEVKKPGASVKVSCKATGYIFTGYWIEWVRQAPGQGLEWMGDILPGSGSPNYNEKFKGRVTMTTDTSTSTAYMELRSLRSDDTAVYYCARYPIFRLRTERIAEWGQGTLVTVSS
VL: DIVMTQSPDSLAVSLGERATINCRASKSVSLSGYSYMHWYQQKPGQPPKLLIYFASNLESGVPDRFSGSGSGTDFTLTISSLQAEDVAVYYCQHSIEEPYTFGQGTKLEIK
notes: Fab; The constant domains are not described for this clone; also called Fab C2-5a1

Kd [2]: 0.363 nM | koff [2]: 0.0028 s⁻¹ | kon [2]: 7.4e+06 M⁻¹ s⁻¹ | Kd [3]: 0.687 nM | koff [3]: 0.0019 s⁻¹ | kon [3]: 3.3e+06 M⁻¹ s⁻¹
B9: Mab C2 (murine VH/VL Fab 1111 sequences with rat Fc chimera) (antibody, V domains shown)
VH: EIQLQQSGAELMKPGASVKLSCKATGYIFTGYWIEWVKQRPGHGLEWIGEILPGSGSTNYNEKFKGKATFTADTSSNTANMQLSSLTTEDSAIYYCARYPQFRLRRERIAYWGQGTLVTVSV
VL: DLVLTQSPASLAVSLGQRATISCRASKSVSTSGYSYMHWYQQKPGQPPKLLIYLASNLESGVPARFSGSGSGTDFTLNIHPVEEEDAATYYCQHSRELPYTFGAGTKLELKR
notes: Chimera with rat Fc

— patent US20080118498A1 (Eli Lilly, published 2008)
